According to US20190112393 (published 2019):

T1: human FcγRIa (human, UniProt P12314)
T1 chain: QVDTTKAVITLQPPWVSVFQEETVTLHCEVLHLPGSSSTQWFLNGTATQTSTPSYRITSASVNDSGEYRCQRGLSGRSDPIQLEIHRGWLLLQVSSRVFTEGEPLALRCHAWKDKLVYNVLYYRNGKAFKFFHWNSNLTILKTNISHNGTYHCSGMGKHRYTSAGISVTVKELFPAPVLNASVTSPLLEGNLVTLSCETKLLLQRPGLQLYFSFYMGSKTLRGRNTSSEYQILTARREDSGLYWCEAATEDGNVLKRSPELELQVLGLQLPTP

T2: human FcγRIIb (human, UniProt P31994)
T2 chain: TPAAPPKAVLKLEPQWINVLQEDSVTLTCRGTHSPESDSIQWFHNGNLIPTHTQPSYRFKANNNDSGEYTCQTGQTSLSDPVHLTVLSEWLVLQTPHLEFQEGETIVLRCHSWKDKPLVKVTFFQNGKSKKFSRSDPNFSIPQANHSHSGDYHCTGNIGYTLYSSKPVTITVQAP


How the values were obtained:
human FcRn = human FcRn (human); test: SPR, pH 6.0
human FcγRIa = target: T1, human FcγRIa; test: SPR
human FcγRIIb = target: T2, human FcγRIIb; test: SPR

Binder	Kd (human FcRn) [nM]	Kd (human FcγRIa) [nM]	Kd (human FcγRIIb) [nM]
F1171 (antibody) chain 1: QVQLQESGPGLVKPSETLSLTCAVSGHSISHDHAWSWVRQPPGEGLEWIGFISYSGITNYNPSLQGRVTISRDNSKNTLYLQMNSLRAEDTAVYYCARSLARTTAMDYWGEGTLVTVSSASTKGPSVFPLAPSSKSTSGGTAALGCLVKDYFPEPVTVSWNSGALTSGVHTFPAVLQSSGLYSLSSVVTVPSSSLGTQTYICNVNHKPSNTKVDKKVEPKSCDKTHTCPPCPAPELLGGPSVFLFPPKPKDTLMISRTPEVTCVVVDVSHEDPEVKFNWYVDGVEVHNAKTKPREEQYNSTYRVVSVLTVLHQDWLNGKEYKCKVSNKALPAPIEKTISKAKGQPREPQVYTLPPSRDELTKNQVSLTCLVKGFYPSDIAVEWESNGQPENNYKTTPPVLDSDGSFFLYSKLTVDKSRWQQGNVFNCSVLHEALHSHYTQKSLSLSP chain 2: DIQMTQSPSSLSASVGDSVTITCQASTDISSHLNWYQQKPGKAPELLIYYGSHLLSGVPSRFSGSGSGTDFTFTISSLEAEDAATYYCGQGNRLPYTFGQGTKVEIERTVAAPSVFIFPPSDEQLKSGTASVVCLLNNFYPREAKVQWKVDNALQSGNSQESVTEQDSKDSTYSLSSTLTLSKADYEKHKVYACEVTHQGLSSPVTKSFNRGEC	240		
BP543 (antibody) chain 1: QVQLQESGPGLVKPSETLSLTCAVSGHSISHDHAWSWVRQPPGEGLEWIGFISYSGITNYNPSLQGRVTISRDNSKNTLYLQMNSLRAEDTAVYYCARSLARTTAMDYWGEGTLVTVSSASTKGPSVFPLAPSSKSTSGGTAALGCLVKDYFPEPVTVSWNSGALTSGVHTFPAVLQSSGLYSLSSVVTVPSSSLGTQTYICNVNHKPSNTKVDKKVEPKSCDKTHTCPPCPAPDLLGDDSVFLFPPKPKDTLMISRTPEVTCVVVDVSQEDGEVKFNWYVDGVEVHNAKTKPREEQDNSTYRVVSVLTVLHQDWLNGKEYKCKVSNKALPRPIEKTISKAKGQPREPQVYTLPPSRDELTKNQVSLTCLVKGFYPSDIAVEWESNGQPENNYKTTPPVLDSDGSFFLYSKLTVDKSRWQQGNVFSCSVMHEALHNHYTQESLSLSP chain 2: not shown		23	20
BP548 (antibody) chain 1: QVQLQESGPGLVKPSETLSLTCAVSGHSISHDHAWSWVRQPPGEGLEWIGFISYSGITNYNPSLQGRVTISRDNSKNTLYLQMNSLRAEDTAVYYCARSLARTTAMDYWGEGTLVTVSSASTKGPSVFPLAPSSKSTSGGTAALGCLVKDYFPEPVTVSWNSGALTSGVHTFPAVLQSSGLYSLSSVVTVPSSSLGTQTYICNVNHKPSNTKVDKKVEPKSCDKTHTCPPCPAPDLLGDDSVFLFPPKPKDTLMISRTPEVTCVVVDVSDEDGEVKFNWYVDGVEVHNAKTKPREEQDNSTYRVVSVLTVLHQDWLNGKEYKCKVSNKALPRPIEKTISKAKGQPREPQVYTLPPSRDELTKNQVSLTCLVKGFYPSDIAVEWESNGQPENNYKTTPPVLDSDGSFFLYSKLTVDKSRWQEGNVFSCSVMHEALHNHYTQESLSLSP chain 2: not shown		12	19
BP541 (antibody) chain 1: QVQLQESGPGLVKPSETLSLTCAVSGHSISHDHAWSWVRQPPGEGLEWIGFISYSGITNYNPSLQGRVTISRDNSKNTLYLQMNSLRAEDTAVYYCARSLARTTAMDYWGEGTLVTVSSASTKGPSVFPLAPSSKSTSGGTAALGCLVKDYFPEPVTVSWNSGALTSGVHTFPAVLQSSGLYSLSSVVTVPSSSLGTQTYICNVNHKPSNTKVDKKVEPKSCDKTHTCPPCPAPDLLGDDSVFLFPPKPKDTLMISRTPEVTCVVVDVSDEDGEVQFNWYVDGVEVHNAKTKPREEQDNSTYRVVSVLTVLHQDWLNGKEYKCKVSNKALPRPIEKTISKAKGQPREPQVYTLPPSRDELTKNQVSLTCLVKGFYPSDIAVEWESNGQPENNYKTTPPVLDSDGSFFLYSKLTVDKSRWQQGNVFSCSVMHEALHNHYTQESLSLSP chain 2: not shown		11	16

The remaining lines, values ahead:

Kd (human FcRn) [nM]	Kd (human FcγRIa) [nM]	Kd (human FcγRIIb) [nM]	Binder
2400			Fv4-IgG1 (antibody) chain 1: not shown chain 2: DIQMTQSPSSLSASVGDSVTITCQASTDISSHLNWYQQKPGKAPELLIYYGSHLLSGVPSRFSGSGSGTDFTFTISSLEAEDAATYYCGQGNRLPYTFGQGTKVEIERTVAAPSVFIFPPSDEQLKSGTASVVCLLNNFYPREAKVQWKVDNALQSGNSQESVTEQDSKDSTYSLSSTLTLSKADYEKHKVYACEVTHQGLSSPVTKSFNRGEC
210			F1166 (antibody) chain 1: QVQLQESGPGLVKPSETLSLTCAVSGHSISHDHAWSWVRQPPGEGLEWIGFISYSGITNYNPSLQGRVTISRDNSKNTLYLQMNSLRAEDTAVYYCARSLARTTAMDYWGEGTLVTVSSASTKGPSVFPLAPSSKSTSGGTAALGCLVKDYFPEPVTVSWNSGALTSGVHTFPAVLQSSGLYSLSSVVTVPSSSLGTQTYICNVNHKPSNTKVDKKVEPKSCDKTHTCPPCPAPELLGGPSVFLFPPKPKDTLYITREPEVTCVVVDVSHEDPEVKFNWYVDGVEVHNAKTKPREEQYNSTYRVVSVLTVLHQDWLNGKEYKCKVSNKALPAPIEKTISKAKGQPREPQVYTLPPSRDELTKNQVSLTCLVKGFYPSDIAVEWESNGQPENNYKTTPPVLDSDGSFFLYSKLTVDKSRWQQGNVFSCSVMHEALHNHYTRKELSLSP chain 2: DIQMTQSPSSLSASVGDSVTITCQASTDISSHLNWYQQKPGKAPELLIYYGSHLLSGVPSRFSGSGSGTDFTFTISSLEAEDAATYYCGQGNRLPYTFGQGTKVEIERTVAAPSVFIFPPSDEQLKSGTASVVCLLNNFYPREAKVQWKVDNALQSGNSQESVTEQDSKDSTYSLSSTLTLSKADYEKHKVYACEVTHQGLSSPVTKSFNRGEC
210			Fv4-YTE (antibody) chain 1: QVQLQESGPGLVKPSETLSLTCAVSGHSISHDHAWSWVRQPPGEGLEWIGFISYSGITNYNPSLQGRVTISRDNSKNTLYLQMNSLRAEDTAVYYCARSLARTTAMDYWGEGTLVTVSSASTKGPSVFPLAPSSKSTSGGTAALGCLVKDYFPEPVTVSWNSGALTSGVHTFPAVLQSSGLYSLSSVVTVPSSSLGTQTYICNVNHKPSNTKVDKKVEPKSCDKTHTCPPCPAPELLGGPSVFLFPPKPKDTLYITREPEVTCVVVDVSHEDPEVKFNWYVDGVEVHNAKTKPREEQYNSTYRVVSVLTVLHQDWLNGKEYKCKVSNKALPAPIEKTISKAKGQPREPQVYTLPPSRDELTKNQVSLTCLVKGFYPSDIAVEWESNGQPENNYKTTPPVLDSDGSFFLYSKLTVDKSRWQQGNVFSCSVMHEALHNHYTQKSLSLSP chain 2: DIQMTQSPSSLSASVGDSVTITCQASTDISSHLNWYQQKPGKAPELLIYYGSHLLSGVPSRFSGSGSGTDFTFTISSLEAEDAATYYCGQGNRLPYTFGQGTKVEIERTVAAPSVFIFPPSDEQLKSGTASVVCLLNNFYPREAKVQWKVDNALQSGNSQESVTEQDSKDSTYSLSSTLTLSKADYEKHKVYACEVTHQGLSSPVTKSFNRGEC
250			F1167 (antibody) chain 1: QVQLQESGPGLVKPSETLSLTCAVSGHSISHDHAWSWVRQPPGEGLEWIGFISYSGITNYNPSLQGRVTISRDNSKNTLYLQMNSLRAEDTAVYYCARSLARTTAMDYWGEGTLVTVSSASTKGPSVFPLAPSSKSTSGGTAALGCLVKDYFPEPVTVSWNSGALTSGVHTFPAVLQSSGLYSLSSVVTVPSSSLGTQTYICNVNHKPSNTKVDKKVEPKSCDKTHTCPPCPAPELLGGPSVFLFPPKPKDTLYITREPEVTCVVVDVSHEDPEVKFNWYVDGVEVHNAKTKPREEQYNSTYRVVSVLTVLHQDWLNGKEYKCKVSNKALPAPIEKTISKAKGQPREPQVYTLPPSRDELTKNQVSLTCLVKGFYPSDIAVEWESNGQPENNYKTTPPVLDSDGSFFLYSKLTVDKSRWQQGNVFNCSVMHEALHNHYTQKSLSLSP chain 2: DIQMTQSPSSLSASVGDSVTITCQASTDISSHLNWYQQKPGKAPELLIYYGSHLLSGVPSRFSGSGSGTDFTFTISSLEAEDAATYYCGQGNRLPYTFGQGTKVEIERTVAAPSVFIFPPSDEQLKSGTASVVCLLNNFYPREAKVQWKVDNALQSGNSQESVTEQDSKDSTYSLSSTLTLSKADYEKHKVYACEVTHQGLSSPVTKSFNRGEC
150			F1170 (antibody) chain 1: QVQLQESGPGLVKPSETLSLTCAVSGHSISHDHAWSWVRQPPGEGLEWIGFISYSGITNYNPSLQGRVTISRDNSKNTLYLQMNSLRAEDTAVYYCARSLARTTAMDYWGEGTLVTVSSASTKGPSVFPLAPSSKSTSGGTAALGCLVKDYFPEPVTVSWNSGALTSGVHTFPAVLQSSGLYSLSSVVTVPSSSLGTQTYICNVNHKPSNTKVDKKVEPKSCDKTHTCPPCPAPELLGGPSVFLFPPKPKDTLMISRTPEVTCVVVDVSHEDPEVKFNWYVDGVEVHNAKTKPREEQYNSTYRVVSVLTVLHQDWLNGKEYKCKVSNKALPAPIEKTISKAKGQPREPQVYTLPPSRDELTKNQVSLTCLVKGFYPSDIAVEWESNGQPENNYKTTPPVLDSDGSFFLYSKLTVDKSRWQQGNVFSCSVLHEALHSHYTRKELSLSP chain 2: DIQMTQSPSSLSASVGDSVTITCQASTDISSHLNWYQQKPGKAPELLIYYGSHLLSGVPSRFSGSGSGTDFTFTISSLEAEDAATYYCGQGNRLPYTFGQGTKVEIERTVAAPSVFIFPPSDEQLKSGTASVVCLLNNFYPREAKVQWKVDNALQSGNSQESVTEQDSKDSTYSLSSTLTLSKADYEKHKVYACEVTHQGLSSPVTKSFNRGEC
